Results taken from the supplement of paper PMC10567573.

B1: STK38L (parent)
chain: RQLAYSTVGTPDYIAPEVFMQTGY

Variants of: B1
Assay: protein stability index of a GFP-peptide fusion (GPS, HEK-293T) (PSI 1-6); higher = more stable
Settings: c terminus: a fixed tail appended
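Further: lentivirally expressed fusions sorted by FACS into six bins by GFP to DsRed ratio, PSI derived from sequencing read proportions per bin multiplied by bin number.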

Protein stability index: each site, then its substitutions
V18: Y 3.3, K 2.25, F 2.28, S 3.06, W 1.92, D 3.57, E 3.62, C 2.58, P 2.31, H 2.51, G 3.16, T 2.73, I 2.09, L 1.8, A 2.46, R 2.66, N 2.97, M 2.29, Q 3.1
P16: C 2.29, A 2.3, H 2.17, K 1.91, G 1.96, F 2.79, S 2.16, R 2.12, Q 2.35, N 2.81, D 2.46, L 1.57, I 3.9, Y 1.89, M 2.13, T 1.82, E 2.96
T22: I 2.39, Q 3.04, E 3.46, D 3.02, L 1.96, P 3.18, N 2.98, V 1.68, W 1.36, K 2.32, M 2.48, F 2.09, R 2.85, Y 2.47, H 2.63, G 3.65, A 2.13, S 2.77, C 2.24
Y24: K 3.38, W 2.33, F 2.19, P 3.25, M 2.67, A 3.35, D 4.18, G 3.43, H 3.26, E 4.54, N 3.35, T 3.42, R 3.06, Q 3.53, I 2.63, L 2.44
G23: T 2.06, N 2.57, S 2.5, V 1.81, D 2.83, L 2.28, M 1.63, W 1.6, H 2.16, F 1.52, A 2.34, P 2.35, R 2.83, K 2.59, Q 2.28, E 2.5, I 1.99, C 1.6, Y 1.86
I14: G 2.65, T 2.69, D 2.81, A 3.13, E 2.92, F 1.57, L 2.92, K 3.11, H 2.57, Q 2.66, C 2.28, W 1.95, Y 2.28, V 2.54, M 2.4, N 2.95, P 2.39, S 3.12
Y13: Q 3.01, W 1.88, T 2.92, S 4.05, V 2.33
F19: A 3.68, I 2.51, L 2.92, C 3.08, M 2.82, T 3.61, N 3.22, Y 2.61, R 3.81, Q 3.11, G 3.53, E 3.38, K 3.12, S 2.78, D 4.07, V 2.71, H 2.76, P 3.47
A15: Y 1.68, D 2.93, T 2.4, E 3.15, W 1.58, V 2.28, P 3.29, Q 3.4, F 1.98, H 2.1, R 2.27, C 2.57, N 2.21, G 3.12, I 1.43, L 2.3, M 2.19, S 2.78, K 2.46
M20: W 1.95, Y 2.89, Q 4.34, L 2.89, I 2.14, D 3.97, E 2.65, T 2.85, H 2.25, R 2.43, K 2.76, F 2.06, A 2.78, V 3.1, P 3.25, G 2.53, C 2.63
